Assay [1] deals with T1, recombinant human DLL3 (ELISA coat) (human, UniProt Q9NYJ7 27-492).
T1 sequence: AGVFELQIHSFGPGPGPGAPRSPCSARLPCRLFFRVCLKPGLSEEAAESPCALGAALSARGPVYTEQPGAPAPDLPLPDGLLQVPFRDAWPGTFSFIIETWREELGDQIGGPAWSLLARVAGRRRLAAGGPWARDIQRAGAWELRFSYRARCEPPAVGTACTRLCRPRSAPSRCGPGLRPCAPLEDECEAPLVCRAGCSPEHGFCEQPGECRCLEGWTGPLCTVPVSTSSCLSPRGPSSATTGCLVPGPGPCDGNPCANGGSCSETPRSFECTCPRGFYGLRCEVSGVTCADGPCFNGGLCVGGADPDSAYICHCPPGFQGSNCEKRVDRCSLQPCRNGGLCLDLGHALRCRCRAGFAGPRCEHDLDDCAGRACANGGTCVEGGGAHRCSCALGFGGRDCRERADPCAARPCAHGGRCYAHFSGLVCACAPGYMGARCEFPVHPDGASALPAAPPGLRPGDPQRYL
Kind of assay: ELISA, plate coated with recombinant human DLL3 0.5 µg/ml, anti-mouse IgG-HRP. The method, then:
(§1) To investigate the binding of anti-DLL3 antibodies to human DLL3, wells of high binding flat-bottom plates were coated with recombinant human DLL3 diluted to 0.5 μg/ml. To assess cross-reactivity of the antibodies to DLL1/DLL4, which are closely related family members to DLL3, plates were coated with recombinant human DLL1 diluted to 1 μg/ml, or human DLL4 diluted to 0.5 μg/ml. […] Binding was detected using anti-mouse IgG-HRP and 3,3′,5,5′-Tetramethylbenzidine (TMB) substrate. Signals were normalized to the corresponding positive control antibody.
Table 38 lists the calculated EC₅₀ based on the binding data from FIG. 24.
In general terms: An ELISA detects its analyte on a solid surface through an enzyme-linked reagent.

For another assay, the target named is T2, recombinant human DLL1 (human, UniProt O00548 18-540, limits assumed).
T2 sequence (looked up): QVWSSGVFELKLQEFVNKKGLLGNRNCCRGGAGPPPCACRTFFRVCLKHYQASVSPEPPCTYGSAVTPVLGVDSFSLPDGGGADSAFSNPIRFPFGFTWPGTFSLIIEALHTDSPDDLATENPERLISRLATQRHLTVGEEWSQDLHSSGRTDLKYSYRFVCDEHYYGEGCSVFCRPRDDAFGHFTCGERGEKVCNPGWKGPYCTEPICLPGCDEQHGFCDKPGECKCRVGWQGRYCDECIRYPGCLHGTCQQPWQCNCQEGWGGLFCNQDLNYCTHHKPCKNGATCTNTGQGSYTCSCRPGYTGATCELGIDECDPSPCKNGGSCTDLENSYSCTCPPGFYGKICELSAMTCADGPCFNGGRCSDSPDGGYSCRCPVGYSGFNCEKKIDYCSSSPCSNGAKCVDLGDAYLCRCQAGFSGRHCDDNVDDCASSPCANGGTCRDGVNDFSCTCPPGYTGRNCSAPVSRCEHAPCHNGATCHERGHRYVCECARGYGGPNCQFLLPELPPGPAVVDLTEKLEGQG
Kind of assay: ELISA, plate-bound recombinant human DLL1 (1 µg/mL), anti-mouse IgG-HRP/TMB, % of positive control max. The method, then: as §1

Assay [2] deals with T3, extracellular domain (ECD) of human DLL3 (AdipoGen Life Sciences) (human, UniProt Q9NYJ7 27-492).
T3 construct: Bought and further purified by size exclusion chromatography; also called hDLL3 ECD; DLL3 ECD
T3 sequence: T1 sequence
Kind of assay: SPR (Biacore 8K), 37 C, antibody captured on anti-mouse Fc, DLL3 ECD injected, 1:1 fit. From the text: The binding kinetics of different anti-DLL3 antibodies to recombinant proteins of different domains of human DLL3 were studied by surface plasmon resonance (SPR) using a Biacore™ 8K instrument. These anti-DLL3 antibodies were produced from mouse hybridomas, and each included a heavy chain variable region and light chain variable region described herein. Briefly, antibodies recognizing human IgG Fc and antibodies recognizing mouse IgG Fc were immobilized on different channels of a Biacore™ 8K chip to allow simultaneous analysis of human and murine anti-DLL3 antibodies. Murine anti-DLL3 antibodies were captured on the anti-mouse Fc channel of the Biacore chip. The human anti-DLL3 antibody from Stemcentrx (San Francisco, Calif.) was used as a control and was captured onto anti-human Fc channel of the Biacore™ chip. Different concentrations of DLL3 ECD, DLL3 N-terminal domain, EGF2-6, EGF3-6, EGF4-6, or EGF5-6 domains of DLL3 were injected. Experiments were performed at 37° C. Biacore™ 8K evaluation software was used for all data analysis. To obtain kinetic rate constants double-referenced data were fit to a 1:1 interaction model using Biacore™ 8K Evaluation software (GE Healthcare, Marlborough, Mass.). The equilibrium binding constant KD was determined by the ratio of binding rate constants kd/kₐ.
Table 36 lists the calculated binding kinetics (KD). […] Stemcentrx anti-DLL3 antibody was used as a control.
(SPR reads the build-up and loss of mass on a sensor chip optically.)

The target of assay [3] is T4, recombinant cynomolgus NKG2D-Fc fusion protein (cynomolgus; human, UniProt P61252 73-216).
T4 construct: extracellular domain; not shown: human IgG1 Fc domain
T4 sequence (looked up): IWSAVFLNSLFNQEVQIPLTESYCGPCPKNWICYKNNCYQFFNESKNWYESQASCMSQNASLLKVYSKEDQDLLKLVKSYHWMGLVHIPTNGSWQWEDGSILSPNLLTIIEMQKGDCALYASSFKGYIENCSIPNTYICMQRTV
Kind of assay: ELISA, plate-bound recombinant cynomolgus NKG2D-Fc, anti-human kappa-HRP/TMB. From the text:
(§2) The nucleic acid sequences of human, mouse or cynomolgus NKG2D ectodomains were fused with nucleic acid sequences encoding human IgG1 Fc domains and introduced into mammalian cells to be expressed. After purification, NKG2D-Fc fusion proteins were adsorbed to wells of microplates. After blocking the wells with bovine serum albumin to prevent non-specific binding, NKG2D-binding domains were titrated and added to the wells pre-adsorbed with NKG2D-Fc fusion proteins. Primary antibody binding was detected using a secondary antibody which was conjugated to horseradish peroxidase and specifically recognizes a human kappa light chain to avoid Fc cross-reactivity. 3,3′,5,5′-Tetramethylbenzidine (TMB), a substrate for horseradish peroxidase, was added to the wells to visualize the binding signal, whose absorbance was measured at 450 nm and corrected at […]. An NKG2D-binding domain clone, an isotype control or a positive control (comprising heavy chain and light chain variable domains selected from SEQ ID NOs:101-104, or anti-mouse NKG2D clones MI-6 and CX-5, eBioscience, San Diego, Calif.) was added to each well.

Assay [4] deals with T5, recombinant mouse NKG2D-Fc fusion protein (mouse; human, UniProt O54709 90-232).
T5 construct: extracellular domain; also called Mouse NKG2D-Fc-biotin; not shown: human IgG1 Fc domain
T5 sequence (looked up): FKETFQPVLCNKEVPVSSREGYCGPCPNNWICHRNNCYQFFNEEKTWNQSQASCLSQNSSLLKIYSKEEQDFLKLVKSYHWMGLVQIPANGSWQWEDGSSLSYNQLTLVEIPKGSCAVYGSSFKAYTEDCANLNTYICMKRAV
The assay can be described thus: ELISA, plate-bound recombinant mouse NKG2D-Fc, anti-human kappa-HRP/TMB.
From the text: as §2

For assay [5], the target named is T6, recombinant human NKG2D-Fc fusion protein (human, UniProt P26718 73-216).
T6 construct: extracellular domain; also called NKG2D-Fc-biotin; not shown: human IgG1 Fc domain
T6 sequence (looked up): T4 sequence (looked up) with N43D, I133T
The assay can be described thus: ELISA, plate-bound recombinant human NKG2D-Fc, anti-human kappa-HRP/TMB.
From the text: as §2

A further assay deals with T7, human DLL3-His (human, UniProt Q9NYJ7 27-492).
T7 construct: also called hDLL3
T7 sequence: T1 sequence
Kind of assay: SPR (Biacore 8K), 37 C, antibody captured on anti-human Fc, DLL3-His 0.411-300 nM injected, 1:1 fit. The source says:
The kinetics of binding of different humanized variants and parental murine 5E7 antibody to human DLL3-His was studied by Surface Plasmon Resonance using a Biacore 8K instrument. Briefly, anti-hFc and anti-mFc IgG proteins were covalently immobilized onto different channels of CMS chip to allow simultaneous analysis of human and murine antibodies. m5E7 was captured on the anti-mouse Fc channel and humanized variants were captured on the anti-human Fc channel at a desired capture level of […] in HBS-EP+ buffer supplemented with 0.1% BSA. Three buffer blanks and human DLL3-His (analyte) at concentrations 0.411-300 nM (in three fold dilutions) were injected over the surface with captured murine or humanized 5E7 for 300 second association time and let dissociate for 600 second at a flow rate of 30 μL/min. The surfaces were subjected to regeneration with three 20-second pulses of 10 mM glycine pH 1.70 at a flow rate of 100 μL/min between every concentration of analyte. The experiment was conducted at 37° C. Data were double referenced and a 1:1 fit model was applied to the sensorgrams in the Biacore Insight Evaluation software.
The kinetic parameters of human DLL3-His binding to murine and humanized variants of 5E7 antibody variants were calculated and shown in Table 39.

Residue numbers refer to the chain shown, from its start.

The term EC50 denotes the concentration at which the effect is half-maximal. In general, Kd refers to the constant that tells how readily two partners part at equilibrium. Low readings indicate a tighter complex, high ones a looser complex. For orientation: koff means the first-order rate constant of dissociation. A high value points to fast dissociation. One may read the kon as the rate constant with which the complex forms. Higher therefore signals faster complex formation. As usually defined, the EC50 (read off the curve) is the concentration needed to bring the measured effect to its halfway point.

B1: anti-DLL3 antibody clone 9E6 (antibody, V domains shown)
VH: QLQLVQSGPELMRPGETVKISCKASGYTFTTYGMNWVKQAPGKGLKWVGWINTYSGVPTYADDFKGRFAFSLESSASTAFLQINNLKDEDTATYFCARFGNYGFDCWGQGTTLTVSS
VL: DIVMTQSPSSLSVSAGEKVTMSCKSSQSLLNSGNQKNYLAWYQQKPGQPPKLLIYGASTRESGVPDRFTGSGSGTDFTLTISSVQAEDLAVYYCQNDHIYPYTFGGGTKLEIK
notes: Murine antibody from a mouse hybridoma
On to B1, for which the EC50 in assay [1] is 0.45 nM. Moreover, in the assay with recombinant human DLL1, the binding result is reported as “no binding”. Moreover, in assay [2], binding was characterised by a dissociation constant (Kd) of 5.11 nM, the koff worked out at 0.00208 s⁻¹ and the on-rate (kon) was found to be 408000 M⁻¹ s⁻¹.

B2: anti-DLL3 antibody clone 10F5 (antibody, V domains shown)
VH: B1 VH
VL: B1 VL
notes: as for B1
B2: the EC50 in assay [1] turned out to be 0.64 nM. Further, the binding result with recombinant human DLL1 is on record as “no binding”.

B3: ADI-27705 (antibody, V domains shown)
VH: QVQLQQWGAGLLKPSETLSLTCAVYGGSFSGYYWSWIRQPPGKGLEWIGEIDHSGSTNYNPSLKSRVTISVDTSKNQFSLKLSSVTAADTAVYYCARARGPWSFDPWGQGTLVTVSS
VL: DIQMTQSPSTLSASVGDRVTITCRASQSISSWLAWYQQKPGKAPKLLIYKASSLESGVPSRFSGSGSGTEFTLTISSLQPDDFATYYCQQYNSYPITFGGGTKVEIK
As to B3, the binding result in assay [3] and in assay [4] was “binds” in each case. The “EC50 (read off the curve)” value in assay [5] is roughly 0.6 nM.

B4: ADI-27724 (antibody, V domains shown)
VH: B3 VH
VL: not shown
For the molecule B4, the “EC50 (read off the curve)” value in assay [3] is roughly 10 nM; in assay [4], roughly 8 nM; in assay [5], roughly 10 nM.

B5: ADI-27741 (antibody, V domains shown)
VH: B3 VH
VL: DIQMTQSPSTLSASVGDRVTITCRASQSIGSWLAWYQQKPGKAPKLLIYKASSLESGVPSRFSGSGSGTEFTLTISSLQPDDFATYYCQQSNSYYTFGGGTKVEIK
Take B5: the binding result in assay [3], in assay [4] and in assay [5] was “binds” in each case.

B6: ADI-28226 (antibody, V domains shown)
VH: B3 VH
VL: DIQMTQSPSTLSASVGDRVTITCRASQSISSWLAWYQQKPGKAPKLLIYKASSLESGVPSRFSGSGSGTEFTLTISSLQPDDFATYYCQQYGSFPITFGGGTKVEIK
notes: also called C26
For the molecule B6, in assay [3], the “EC50 (read off the curve)” value was roughly 1 nM. For the same molecule, the binding result in assay [4] and in assay [5] was “binds” throughout.

B7: humanized anti-DLL3 antibody h5E7-YD-A6 (antibody, V domains shown)
VH: QVQLVQSGAEVKKPGASVKVSCKASGFNIKDDYIHWVRQAPGQGLEWMGWIDSENGDTEYASKFQGRVTITADTSANTAYMELSSLRSEDTAVYYCATSSYWSYDLFVYWGQGTLVTVSS
VL: DVQMTQSPSSLSASVGDRVTITCKSSQSLLHSNGKTYLNWLQQKPGQAPKLLLYLVSKLESGVPSRFSGSGSGTDYTLTISSLQPEDFATYYCLQTTHLYTFGQGTKLEIK
notes: Expressed as IgG1 mAb: human IgG1 CH1-CH2-CH3 and human constant kappa; also called A6 variant
Turning to B7, in the assay with human DLL3-His, the Kd is 1.1 nM, the koff is 0.000434 s⁻¹ and the kon came out at 396000 M⁻¹ s⁻¹.

B8: humanized anti-DLL3 antibody h5E7-YD-B5 (antibody, V domains shown)
VH: B7 VH with S100T
VL: B7 VL
notes: Expressed as IgG1 mAb: human IgG1 CH1-CH2-CH3 and human constant kappa; also called B5 variant
In the assay with human DLL3-His, B8 came in with a Kd of 0.27 nM, an off-rate constant (koff) of 0.00013 s⁻¹ and a kon of 474000 M⁻¹ s⁻¹.

B9: humanized anti-DLL3 antibody h5E7-YD-C6 (antibody, V domains shown)
VH: B7 VH with S100E, W102Y
VL: B7 VL
notes: Expressed as IgG1 mAb: human IgG1 CH1-CH2-CH3 and human constant kappa; also called C6 variant
As to B9, in the assay with human DLL3-His, the affinity, expressed as Kd, was 3.35 nM; the koff worked out at 0.00137 s⁻¹; the kon was 409000 M⁻¹ s⁻¹.

B10: humanized anti-DLL3 antibody h5E7-YD-F3 (antibody, V domains shown)
VH: B7 VH with F107L
VL: B7 VL
notes: Expressed as IgG1 mAb: human IgG1 CH1-CH2-CH3 and human constant kappa; also called F3 variant
In the assay with human DLL3-His, B10 registered a Kd of 1.29 nM, a koff of 0.000405 s⁻¹ and a kon of 312000 M⁻¹ s⁻¹.

(Values after patent US20210221894A1 (DRAGONFLY THERAPEUTICS, published 2021).)
